The values that follow come from publication PMC9299187.

The target of experiment [1] is Chimera‐Long (human DHFR‐TYMS bifunctional chimeric enzyme with 20 amino acid linker) (human). Description: SEC; Superdex 200 10/300, 0.1 M K-phosphate pH 7.5, calibrated with protein standards; IMAC fractions of the Chimera constructs. (In gel filtration, larger molecules generally elute earlier.)
Experiment [2] addresses Chimera‐Short (human DHFR‐TYMS bifunctional chimeric enzyme with 10 amino acid linker) (human). The description is as above.
Experiment [3] has as its target Chimera‐Long (human DHFR‐TYMS bifunctional chimeric enzyme with 20 amino acid linker) (human). Description: SPR; Chimera-Long amine-coupled on a COOH2 chip (735 RU on Ch1, 175 RU on Ch3), SHMT1 as analyte 2.66-85 uM, 25 °C, 10 mM Hepes pH 7.4, 150 mM NaCl, 0.005% Tween-20; 1 : 1 bimolecular interaction model. Background: In SPR one partner is held on a chip, and binding of the other changes the refractive index at the surface.

Experiment [4] has the same target. The experiment is described as above. This is another data set of the same source.
Experiment [5] shares this target. Description: BLI; Chimera held by mouse anti-DHFR on a Protein-A biosensor, SHMT1 as analyte 1-30 uM, kinetic titration series, kinetic buffer, 25 °C; two-exponential fit, heterogeneous binding model with two binding events. A general note: BLI is a label-free optical method that tracks binding on a fibre tip over time.

Where two headings read alike, the source gives them in different places.

With “Chimera‐Long (human DHFR‐TYMS bifunctional chimeric enzyme with 20 amino acid linker)”, in experiment [1], the stoichiometry N (usually a count of units in the complex or per binding partner) was found to be 2.

“Chimera‐Short (human DHFR‐TYMS bifunctional chimeric enzyme with 10 amino acid linker)”: in experiment [2], the stoichiometry N amounted to 2.

B1: serine hydroxymethyltransferase (SHMT1), purified recombinant, tetrameric (enzyme)
chain: DADLWSSHDKMLAQPLKDSDVEVYNIIKKESNRQRVGLELIASENFASRAVLEALGSCLNNKYSEGYPGQRYYGGTEFIDELETLCQKRALQAYKLDPQCWGVNVQPYSGSPANFAVYTALVEPHGRIMGLDLPDGGHLTHGFMTDKKKISATSIFFESMPYKVNPDTGYINYDQLEENARLFHPKLIIAGTSCYSRNLEYARLRKIADENGAYLMADMAHISGLVAAGVVPSPFEHCHVVTTTTHKTLRGCRAGMIFYRKGVKSVDPKTGKEILYNLESLINSAVFPGLQGGPHNHAIAGVAVALKQAMTLEFKVYQHQVVANCRALSEALTELGYKIVTGGSDNHLILVDLRSKGTDGGRAEKVLEACSIACNKNTCPGDRSALRPSGLRLGTPALTSRGLLEKDFQKVAHFIHRGIELTLQIQSDTGVRATLKEFKERLAGDKYQAAVQALREEVESFASLFPLPGL
As for B1, the Kd (commonly a measure of binding affinity in units of concentration) in experiment [3] was 2.9 µM. For the same molecule, in experiment [4], the Kd was determined as 2.5 µM; the koff (as a rule, the rate constant with which the complex falls apart) is 0.0025 s⁻¹; the kon (usually the second-order rate constant of association) amounted to 470 M⁻¹ s⁻¹. Also, in experiment [5], the KD, binding 1 came out at 16.4 µM; the KD, binding 2 was 13.5 µM; the koff, binding 1 came to 0.2 s⁻¹; the koff, binding 2 amounted to 0.02 s⁻¹. Moreover, in experiment [5], the kon, binding 1 is 14000 M⁻¹ s⁻¹ and the kon, binding 2 amounted to 1600 M⁻¹ s⁻¹.
